{"source": "the supplement of paper PMC10126150", "note": "± gives the standard deviation of the averaged measurements.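 Also: ATP exposure 15 min at 22 °C before imaging.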", "data": [{"test_system": "ATP", "experiment": "switch fluorescence ratio, 500 uM ATP over buffer (Cy3 cluster intensity, sum of 5 cycles each) (fold (ratio)); higher = stronger signal-on switching upon ATP binding; sequences stand for … in TCGTCGGCAGCGTCAGATGTGTATAAGAGACAGTTTTTTTTTTTTTTTTTTTTTTTTT…TC", "conditions": "aptamer strand: ATP DNA aptamer (quencher-CACCTGGGGGAGTATTGCGGAGGAAGG + anchor), 100 nM annealed; ATP concentration: 500 uM", "in_short": "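After annealing to 100 nM quencher-labelled ATP aptamer, Cy3-labelled switching-strand clusters on a modified Illumina MiSeq flow-cell were imaged in selection buffer. A second image followed after 15 min with 500 uM ATP at 22 °C, and five such buffer/ATP cycles were done, each separated by NaOH stripping and re-annealing. The fluorescence ratio, averaged per switch-domain sequence, is summed target-cycle over summed buffer-cycle Cy3 intensity per cluster, with clusters outside 100-1000 RFU excluded.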", "values": [{"sequence": "TTTCTCGTAC", "switch fluorescence ratio": "1.11 ± 0.012"}, {"sequence": "TTTCTCTGAT", "switch fluorescence ratio": "0.9813 ± 0.0042"}, {"sequence": "TTTCTCTTAG", "switch fluorescence ratio": "0.9889 ± 0.0072"}, {"sequence": "TTTCTGAGCT", "switch fluorescence ratio": "1.08 ± 0.068"}, {"sequence": "TTTCTGCTTT", "switch fluorescence ratio": "1.04 ± 0.057"}, {"sequence": "TTTCTGGCTA", "switch fluorescence ratio": "1.08 ± 0.053"}, {"sequence": "TTTCTGGGGA", "switch fluorescence ratio": "0.991 ± 0.034"}, {"sequence": "TTTCTGGGGT", "switch fluorescence ratio": "1.01 ± 0.054"}, {"sequence": "TTTCTGGGTG", "switch fluorescence ratio": "1.13 ± 0.038"}, {"sequence": "TTTCTGGTTT", "switch fluorescence ratio": "1 ± 0.016"}, {"sequence": "TTTCTGTAAT", "switch fluorescence ratio": "1.05 ± 0.03"}, {"sequence": "TTTCTGTGCT", "switch fluorescence ratio": "0.97009 ± 7e-05"}, {"sequence": "TTTCTTCAAA", "switch fluorescence ratio": "0.997 ± 0.02"}, {"sequence": "TTTCTTCAGC", "switch fluorescence ratio": "1.21 ± 0.19"}, {"sequence": "TTTCTTGCTG", "switch fluorescence ratio": "1.07 ± 0.047"}, {"sequence": "TTTCTTGGCG", "switch fluorescence ratio": "1 ± 0.03"}, {"sequence": "TTTCTTTTTG", "switch fluorescence ratio": "0.99 ± 0.034"}, {"sequence": "TTTGAAAATA", "switch fluorescence ratio": "0.962 ± 0.018"}, {"sequence": "TTTGAAAGCT", "switch fluorescence ratio": "1.164 ± 0.0067"}, {"sequence": "TTTGAAGTTT", "switch fluorescence ratio": "1 ± 0.018"}, {"sequence": "TTTGAATAGG", "switch fluorescence ratio": "1.01 ± 0.016"}, {"sequence": "TTTGAATCGG", "switch fluorescence ratio": "0.97 ± 0.027"}, {"sequence": "TTTGAATCTT", "switch fluorescence ratio": "1 ± 0.02"}, {"sequence": "TTTGAATGCT", "switch fluorescence ratio": "0.952 ± 0.046"}, {"sequence": "TTTGAATGTA", "switch fluorescence ratio": "1.011 ± 0.0078"}, {"sequence": "TTTGAATTAT", "switch fluorescence ratio": "0.975 ± 0.021"}, {"sequence": "TTTGAATTTC", "switch fluorescence ratio": "0.988 ± 0.021"}, {"sequence": "TTTGACAGCG", "switch fluorescence ratio": "1.02 ± 0.066"}, {"sequence": "TTTGACGACT", "switch fluorescence ratio": "1.01 ± 0.025"}, {"sequence": "TTTGACGGTG", "switch fluorescence ratio": "1.01 ± 0.034"}, {"sequence": "TTTGACTATG", "switch fluorescence ratio": "0.999 ± 0.022"}, {"sequence": "TTTGAGGAGG", "switch fluorescence ratio": "0.9876 ± 0.0046"}, {"sequence": "TTTGAGGGTA", "switch fluorescence ratio": "1.03 ± 0.1"}, {"sequence": "TTTGAGGTGT", "switch fluorescence ratio": "1.03 ± 0.012"}, {"sequence": "TTTGAGTCCG", "switch fluorescence ratio": "1.04 ± 0.065"}, {"sequence": "TTTGAGTGAG", "switch fluorescence ratio": "0.9892 ± 0.0098"}, {"sequence": "TTTGAGTGAT", "switch fluorescence ratio": "1.01 ± 0.057"}, {"sequence": "TTTGAGTGCG", "switch fluorescence ratio": "0.973 ± 0.025"}, {"sequence": "TTTGATAAAT", "switch fluorescence ratio": "1 ± 0.014"}, {"sequence": "TTTGATAGTT", "switch fluorescence ratio": "1.01 ± 0.018"}, {"sequence": "TTTGATATAT", "switch fluorescence ratio": "0.972 ± 0.012"}, {"sequence": "TTTGATATTA", "switch fluorescence ratio": "0.994 ± 0.026"}, {"sequence": "TTTGATCAGA", "switch fluorescence ratio": "1 ± 0.025"}, {"sequence": "TTTGATCGTT", "switch fluorescence ratio": "1.01 ± 0.011"}, {"sequence": "TTTGATGGCT", "switch fluorescence ratio": "1.02 ± 0.039"}, {"sequence": "TTTGATGTAA", "switch fluorescence ratio": "1.01 ± 0.026"}, {"sequence": "TTTGATGTAC", "switch fluorescence ratio": "1.05 ± 0.013"}, {"sequence": "TTTGATGTTT", "switch fluorescence ratio": "1 ± 0.031"}, {"sequence": "TTTGATTAGG", "switch fluorescence ratio": "1.01 ± 0.04"}, {"sequence": "TTTGCAAACT", "switch fluorescence ratio": "0.994 ± 0.017"}, {"sequence": "TTTGCAACGA", "switch fluorescence ratio": "1.25 ± 0.31"}, {"sequence": "TTTGCAATTA", "switch fluorescence ratio": "1.57 ± 0.5"}, {"sequence": "TTTGCACGTT", "switch fluorescence ratio": "1.03 ± 0.037"}, {"sequence": "TTTGCAGGGT", "switch fluorescence ratio": "1.03 ± 0.025"}, {"sequence": "TTTGCATACT", "switch fluorescence ratio": "2.75 ± 2.4"}, {"sequence": "TTTGCATGCA", "switch fluorescence ratio": "1.03 ± 0.02"}, {"sequence": "TTTGCCAAAC", "switch fluorescence ratio": "1.52 ± 0.55"}, {"sequence": "TTTGCCGATG", "switch fluorescence ratio": "0.985 ± 0.013"}, {"sequence": "TTTGCCGGAC", "switch fluorescence ratio": "1.04 ± 0.062"}, {"sequence": "TTTGCCGGGG", "switch fluorescence ratio": "1.02 ± 0.06"}, {"sequence": "TTTGCCTCAA", "switch fluorescence ratio": "1.01 ± 0.011"}, {"sequence": "TTTGCCTTTG", "switch fluorescence ratio": "0.9991 ± 0.0076"}, {"sequence": "TTTGCGCCGT", "switch fluorescence ratio": "1.02 ± 0.058"}, {"sequence": "TTTGCGGACC", "switch fluorescence ratio": "1.05 ± 0.025"}, {"sequence": "TTTGCGTTTC", "switch fluorescence ratio": "1.07 ± 0.039"}, {"sequence": "TTTGCTAAAT", "switch fluorescence ratio": "1.02 ± 0.02"}, {"sequence": "TTTGCTAGGT", "switch fluorescence ratio": "1.02 ± 0.031"}, {"sequence": "TTTGCTGACG", "switch fluorescence ratio": "1.02 ± 0.055"}, {"sequence": "TTTGCTGTTG", "switch fluorescence ratio": "0.965 ± 0.037"}, {"sequence": "TTTGCTGTTT", "switch fluorescence ratio": "1.01 ± 0.013"}, {"sequence": "TTTGCTTACG", "switch fluorescence ratio": "1.1 ± 0.13"}, {"sequence": "TTTGCTTTAA", "switch fluorescence ratio": "1 ± 0.067"}, {"sequence": "TTTGCTTTTG", "switch fluorescence ratio": "0.988 ± 0.021"}, {"sequence": "TTTGGACTAT", "switch fluorescence ratio": "1.012 ± 0.0038"}, {"sequence": "TTTGGAGGAT", "switch fluorescence ratio": "0.978 ± 0.029"}, {"sequence": "TTTGGAGGGC", "switch fluorescence ratio": "1.06 ± 0.065"}, {"sequence": "TTTGGATACA", "switch fluorescence ratio": "0.9739 ± 0.0012"}, {"sequence": "TTTGGATCGT", "switch fluorescence ratio": "0.981 ± 0.025"}, {"sequence": "TTTGGATGGA", "switch fluorescence ratio": "1.02 ± 0.023"}, {"sequence": "TTTGGATGGT", "switch fluorescence ratio": "0.996 ± 0.02"}, {"sequence": "TTTGGCGCAC", "switch fluorescence ratio": "1.06 ± 0.015"}, {"sequence": "TTTGGCGCTG", "switch fluorescence ratio": "0.984 ± 0.019"}, {"sequence": "TTTGGCGTGC", "switch fluorescence ratio": "1 ± 0.045"}, {"sequence": "TTTGGCTGGG", "switch fluorescence ratio": "0.985 ± 0.02"}, {"sequence": "TTTGGCTTAC", "switch fluorescence ratio": "1.55 ± 0.72"}, {"sequence": "TTTGGCTTGG", "switch fluorescence ratio": "0.992 ± 0.031"}, {"sequence": "TTTGGCTTTT", "switch fluorescence ratio": "1.06 ± 0.18"}, {"sequence": "TTTGGGAAAA", "switch fluorescence ratio": "1.05 ± 0.038"}, {"sequence": "TTTGGGACGT", "switch fluorescence ratio": "0.978 ± 0.03"}, {"sequence": "TTTGGGAGGG", "switch fluorescence ratio": "0.969 ± 0.02"}, {"sequence": "TTTGGGATTA", "switch fluorescence ratio": "0.983 ± 0.041"}, {"sequence": "TTTGGGCCCG", "switch fluorescence ratio": "0.9936 ± 0.0014"}, {"sequence": "TTTGGGCGGG", "switch fluorescence ratio": "1.01 ± 0.033"}, {"sequence": "TTTGGGGACG", "switch fluorescence ratio": "1.01 ± 0.019"}, {"sequence": "TTTGGGGAGC", "switch fluorescence ratio": "0.986 ± 0.045"}, {"sequence": "TTTGGGGCAG", "switch fluorescence ratio": "1.06 ± 0.078"}, {"sequence": "TTTGGGGCGT", "switch fluorescence ratio": "1 ± 0.035"}, {"sequence": "TTTGGGGCT", "switch fluorescence ratio": "0.957 ± 0.039"}, {"sequence": "TTTGGGGGAG", "switch fluorescence ratio": "1.01 ± 0.027"}, {"sequence": "TTTGGGGGGG", "switch fluorescence ratio": "1 ± 0.051"}]}]}
